Assay results as given in the supplement of paper PMC5998384.

Legend:
HeLa Kyoto [1] = experiment: solubility in G1/S (NP-40 vs SDS abundance) (log2 ratio); higher = more soluble; details: cell cycle stage: G1/S
HeLa Kyoto [2] = experiment: melting temperature (median over replicates), in situ; higher = more thermally stable
HeLa Kyoto [3] = experiment: thermal stability score vs G1/S (z-score of summed log2 fold changes over temperatures); higher = more thermally stable than in G1/S
HeLa Kyoto [4] = experiment: solubility change mitosis vs G1/S (difference of NP-40 vs SDS log2 ratios) (log2 ratio difference); higher = more soluble in mitosis
[5] = cell cycle stage: early G1 (4.5 h after nocodazole release)
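Throughout, for melting temperature (median over replicates), in situ: HeLa Kyoto cells synchronized by double thymidine or nocodazole block, proteins quantified by TMT10plex mass spectrometry, three independent biological replicates.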
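Throughout, for solubility change mitosis vs G1/S (difference of NP-40 vs SDS log2 ratios): synchronized HeLa Kyoto cells (double thymidine block for G1/S, nocodazole release for mitosis), protein amounts in NP-40 versus SDS lysates quantified by mass spectrometry, three biological replicates.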
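Throughout, for solubility in G1/S (NP-40 vs SDS abundance): HeLa Kyoto cells arrested at G1/S by double thymidine block, proteins quantified by TMT10plex mass spectrometry in mild NP-40 versus SDS extracts, three biological replicates.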
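Throughout, for thermal stability score vs G1/S (z-score of summed log2 fold changes over temperatures): synchronized HeLa Kyoto cells, proteins quantified by TMT10plex mass spectrometry, three biological replicates, mitosis taken 0.5 h after nocodazole release, G1/S directly after double thymidine block.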

Substance	solubility in G1/S (log2) (HeLa Kyoto [1])	melting temperature (HeLa Kyoto [2]; cell cycle stage: G1/S)	melting temperature (HeLa Kyoto [2]; cell cycle stage: mitosis)	thermal stability score (HeLa Kyoto [3]; [5])	thermal stability score (HeLa Kyoto [3]; cell cycle stage: mitosis)	solubility change mitosis (log2) (HeLa Kyoto [4])
MSAEVETSEGVDESEKKNSGALEKENQMRMADLSELLKEGTKEAHDRAENTQFVKDFLKGNIKKELFKLATTALYFTYSALEEEMERNKDHPAFAPLYFPMELHRKEALTKDMEYFFGENWEEQVQCPKAAQKYVERIHYIGQNEPELLVAHAYTRYMGDLSGGQVLKKVAQRALKLPSTGEGTQFYLFENVDNAQQFKQLYRARMNALDLNMKTKERIVEEANKAFEYNMQIFNELDQAGSTLARETLEDGFPVHDGKGDMRKCPFYAAEQDKGALEGSSCPFRTAMAVLRKPSLQFILAAGVALAAGLLAWYYM [HMOX2]	0.427	49.4 °C	51 °C	0.884	1.97	0.0224
MADEIAKAQVARPGGDTIFGKIIRKEIPAKIIFEDDRCLAFHDISPQAPTHFLVIPKKHISQISVAEDDDESLLGHLMIVGKKCAADLGLNKGYRMVVNEGSDGGQSVYHVHLHVLGGRQMHWPPG [HINT1]	0.25	56.4 °C	56 °C	-5.39	-4.12	0.17
MEFPGGNDNYLTITGPSHPFLSGAETFHTPSLGDEEFEIPPISLDSDPSLAVSDVVGHFDDLADPSSSQDGSFSAQYGVQTLDMPVGMTHGLMEQGGGLLSGGLTMDLDHSIGTQYSANPPVTIDVPMTDMTSGLMGHSQLTTIDQSELSSQLGLSLGGGTILPPAQSPEDRLSTTPSPTSSLHEDGVEDFRRQLPSQKTVVVEAGKKQKAPKKRKKKDPNEPQKPVSAYALFFRDTQAAIKGQNPNATFGEVSKIVASMWDSLGEEQKQVYKRKTEAAKKEYLKALAAYKDNQECQATVETVELDPAPPSQTPSPPPMATVDPASPAPASIEPPALSPSIVVNSTLSSYVANQASSGAGGQPNITKLIITKQMLPSSITMSQGGMVTVIPATVVTSRGLQLGQTSTATIQPSQQAQIVTRSVLQAAAAAAAAASMQLPPPRLQPPPLQQMPQPPTQQQVTILQQPPPLQAMQQPPPQKVRINLQQQPPPLQIKSVPLPTLKMQTTLVPPTVESSPERPMNNSPEAHTVEAPSPETICEMITDVVPEVESPSQMDVELVSGSPVALSPQPRCVRSGCENPPIVSKDWDNEYCSNECVVKHCRDVFLAWVASRNSNTVVFVK [TOX4]	-0.562	50.6 °C	53 °C	0.423	0.887	0.0879
MAEKVLVTGGAGYIGSHTVLELLEAGYLPVVIDNFHNAFRGGGSLPESLRRVQELTGRSVEFEEMDILDQGALQRLFKKYSFMAVIHFAGLKAVGESVQKPLDYYRVNLTGTIQLLEIMKAHGVKNLVFSSSATVYGNPQYLPLDEAHPTGGCTNPYGKSKFFIEEMIRDLCQADKTWNAVLLRYFNPTGAHASGCIGEDPQGIPNNLMPYVSQVAIGRREALNVFGNDYDTEDGTGVRDYIHVVDLAKGHIAALRKLKEQCGCRIYNLGTGTGYSVLQMVQAMEKASGKKIPYKVVARREGDVAACYANPSLAQEELGWTAALGLDRMCEDLWRWQKQNPSGFGTQA [GALE]	0.453	53.3 °C	53.8 °C	-3.9	-0.458	-0.146
SLC35E1	-0.14	51.3 °C	52 °C	0.109	0.648	-0.172
ATP1B3	0.832	55.5 °C	56.1 °C	-1.58	-2.77	0.0393
MNIMNTEQSQNSIVSRIKVFEGQTNIETSGLPKKPEITPRSLPPKPTVSSGKPSVAPKPAANRASGEWDSGTENRLKVTSKEGLTPYPPLQEAGSIPVTKPELPKKPNPGLIRSVNPEIPGRGPLAESSDSGKKVPTPAPRPLLLKKSVSSENPTYPSAPLKPVTVPPRLAGASQAKAYKSLGEGPPANPPVPVLQSKPLVDIDLISFDDDVLPTPSGNLAEESVGSEMVLDPFQLPAKTEPIKERAVQPAPTRKPTVIRIPAKPGKCLHEDPQSPPPLPAEKPIGNTFSTVSGKLSNVERTRNLESNHPGQTGGFVRVPPRLPPRPVNGKTIPTQQPPTKVPPERPPPPKLSATRRSNKKLPFNRSSSDMDLQKKQSNLATGLSKAKSQVFKNQDPVLPPRPKPGHPLYSKYMLSVPHGIANEDIVSQNPGELSCKRGDVLVMLKQTENNYLECQKGEDTGRVHLSQMKIITPLDEHLRSRPNDPSHAQKPVDSGAPHAVVLHDFPAEQVDDLNLTSGEIVYLLEKIDTDWYRGNCRNQIGIFPANYVKVIIDIPEGGNGKRECVSSHCVKGSRCVARFEYIGEQKDELSFSEGEIIILKEYVNEEWARGEVRGRTGIFPLNFVEPVEDYPTSGANVLSTKVPLKTKKEDSGSNSQVNSLPAEWCEALHSFTAETSDDLSFKRGDRIQILERLDSDWCRGRLQDREGIFPAVFVRPCPAEAKSMLAIVPKGRKAKALYDFRGENEDELSFKAGDIITELESVDDDWMSGELMGKSGIFPKNYIQFLQIS [SH3D19]	0.173		49 °C	0.0615	-0.175	-0.127
CDC42BPA	-0.143	49.8 °C	50.3 °C	-0.472	0.207	-0.0814
MAAPALGLVCGRCPELGLVLLLLLLSLLCGAAGSQEAGTGAGAGSLAGSCGCGTPQRPGAHGSSAAAHRYSREANAPGPVPGERQLAHSKMVPIPAGVFTMGTDDPQIKQDGEAPARRVTIDAFYMDAYEVSNTEFEKFVNSTGYLTEAEKFGDSFVFEGMLSEQVKTNIQQAVAAAPWWLPVKGANWRHPEGPDSTILHRPDHPVLHVSWNDAVAYCTWAGKRLPTEAEWEYSCRGGLHNRLFPWGNKLQPKGQHYANIWQGEFPVTNTGEDGFQGTAPVDAFPPNGYGLYNIVGNAWEWTSDWWTVHHSVEETLNPKGPPSGKDRVKKGGSYMCHRSYCYRYRCAARSQNTPDSSASNLGFRCAADRLPTMD [SUMF1]	0.277	53.7 °C	55.1 °C	-1.37	2.23	0.0674
MGSLFRSETMCLAQLFLQSGTAYECLSALGEKGLVQFRDLNQNVSSFQRKFVGEVKRCEELERILVYLVQEINRADIPLPEGEASPPAPPLKQVLEMQEQLQKLEVELREVTKNKEKLRKNLLELIEYTHMLRVTKTFVKRNVEFEPTYEEFPSLESDSLLDYSCMQRLGAKLGFVSGLINQGKVEAFEKMLWRVCKGYTIVSYAELDESLEDPETGEVIKWYVFLISFWGEQIGHKVKKICDCYHCHVYPYPNTAEERREIQEGLNTRIQDLYTVLHKTEDYLRQVLCKAAESVYSRVIQVKKMKAIYHMLNMCSFDVTNKCLIAEVWCPEADLQDLRRALEEGSRESGATIPSFMNIIPTKETPPTRIRTNKFTEGFQNIVDAYGVGSYREVNPALFTIITFPFLFAVMFGDFGHGFVMFLFALLLVLNENHPRLNQSQEIMRMFFNGRYILLLMGLFSVYTGLIYNDCFSKSVNLFGSGWNVSAMYSSSHPPAEHKKMVLWNDSVVRHNSILQLDPSIPGVFRGPYPLGIDPIWNLATNRLTFLNSFKMKMSVILGIIHMTFGVILGIFNHLHFRKKFNIYLVSIPELLFMLCIFGYLIFMIFYKWLVFSAETSRVAPSILIEFINMFLFPASKTSGLYTGQEYVQRVLLVVTALSVPVLFLGKPLFLLWLHNGRSCFGVNRSGYTLIRKDSEEEVSLLGSQDIEEGNHQVEDGCREMACEEFNFGEILMTQVIHSIEYCLGCISNTASYLRLWALSLAHAQLSDVLWAMLMRVGLRVDTTYGVLLLLPVIALFAVLTIFILLIMEGLSAFLHAIRLHWVEFQNKFYVGAGTKFVPFSFSLLSSKFNNDDSVA [ATP6V0A2]	-0.303	55.8 °C	56.5 °C	-2.85	-3.91	-0.0408
MTSSGPGPRFLLLLPLLLPPAASASDRPRGRDPVNPEKLLVITVATAETEGYLRFLRSAEFFNYTVRTLGLGEEWRGGDVARTVGGGQKVRWLKKEMEKYADREDMIIMFVDSYDVILAGSPTELLKKFVQSGSRLLFSAESFCWPEWGLAEQYPEVGTGKRFLNSGGFIGFATTIHQIVRQWKYKDDDDDQLFYTRLYLDPGLREKLSLNLDHKSRIFQNLNGALDEVVLKFDRNRVRIRNVAYDTLPIVVHGNGPTKLQLNYLGNYVPNGWTPEGGCGFCNQDRRTLPGGQPPPRVFLAVFVEQPTPFLPRFLQRLLLLDYPPDRVTLFLHNNEVFHEPHIADSWPQLQDHFSAVKLVGPEEALSPGEARDMAMDLCRQDPECEFYFSLDADAVLTNLQTLRILIEENRKVIAPMLSRHGKLWSNFWGALSPDEYYARSEDYVELVQRKRVGVWNVPYISQAYVIRGDTLRMELPQRDVFSGSDTDPDMAFCKSFRDKGIFLHLSNQHEFGRLLATSRYDTEHLHPDLWQIFDNPVDWKEQYIHENYSRALEGEGIVEQPCPDVYWFPLLSEQMCDELVAEMEHYGQWSGGRHEDSRLAGGYENVPTVDIHMKQVGYEDQWLQLLRTYVGPMTESLFPGYHTKARAVMNFVVRYRPDEQPSLRPHHDSSTFTLNVALNHKGLDYEGGGCRFLRYDCVISSPRKGWALLHPGRLTHYHEGLPTTWGTRYIMVSFVDP [PLOD3]	-0.074	54.2 °C	55 °C	2.65	3.82	0.039
MADGDSGSERGGGGGPCGFQPASRGGGEQETQELASKRLDIQNKRFYLDVKQNAKGRFLKIAEVGAGGSKSRLTLSMAVAAEFRDSLGDFIEHYAQLGPSSPEQLAAGAEEGGGPRRALKSEFLVRENRKYYLDLKENQRGRFLRIRQTVNRGGGGFGAGPGPGGLQSGQTIALPAQGLIEFRDALAKLIDDYGGEDDELAGGPGGGAGGPGGGLYGELPEGTSITVDSKRFFFDVGCNKYGVFLRVSEVKPSYRNAITVPFKAWGKFGGAFCRYADEMKEIQERQRDKLYERRGGGSGGGEESEGEEVDED [PURB]	0.381	54.2 °C	54.1 °C	-1.12	-5.37	0.0319
MTTLDDKLLGEKLQYYYSSSEDEDSDHEDKDRGRCAPASSSVPAEAELAGEGISVNTGPKGVINDWRRFKQLETEQREEQCREMERLIKKLSMTCRSHLDEEEEQQKQKDLQEKISGKMTLKEFAIMNEDQDDEEFLQQYRKQRMEEMRQQLHKGPQFKQVFEISSGEGFLDMIDKEQKSIVIMVHIYEDGIPGTEAMNGCMICLAAEYPAVKFCKVKSSVIGASSQFTRNALPALLIYKGGELIGNFVRVTDQLGDDFFAVDLEAFLQEFGLLPEKEVLVLTSVRNSATCHSEDSDLEID [PDCL]	-0.0669		51.5 °C	0.206	-0.546	0.0999
TENM3	0.0433	54.9 °C	55.6 °C	-2.98	-2.29	-0.0942
MHGRLKVKTSEEQAEAKRLEREQKLKLYQSATQAVFQKRQAGELDESVLELTSQILGANPDFATLWNCRREVLQQLETQKSPEELAALVKAELGFLESCLRVNPKSYGTWHHRCWLLGRLPEPNWTRELELCARFLEVDERNFHCWDYRRFVATQAAVPPAEELAFTDSLITRNFSNYSSWHYRSCLLPQLHPQPDSGPQGRLPEDVLLKELELVQNAFFTDPNDQSAWFYHRWLLGRADPQDALRCLHVSRDEACLTVSFSRPLLVGSRMEILLLMVDDSPLIVEWRTPDGRNRPSHVWLCDLPAASLNDQLPQHTFRVIWTAGDVQKECVLLKGRQEGWCRDSTTDEQLFRCELSVEKSTVLQSELESCKELQELEPENKWCLLTIILLMRALDPLLYEKETLQYFQTLKAVDPMRATYLDDLRSKFLLENSVLKMEYAEVRVLHLAHKDLTVLCHLEQLLLVTHLDLSHNRLRTLPPALAALRCLEVLQASDNAIESLDGVTNLPRLQELLLCNNRLQQPAVLQPLASCPRLVLLNLQGNPLCQAVGILEQLAELLPSVSSVLT [RABGGTA]	0.0201	53.8 °C	53.3 °C	-0.496	-1.06	-0.067
